Kd data for two molecules are collected here from paper PMC8626535.

One experiment has as its target NKp30-Fc (human) (UniProt O14931). Put plainly: BLI. In general terms: Biolayer interferometry detects binding as a change in optical thickness at a sensor tip.
Another experiment addresses CC3-Fc (human) (UniProt O14931). The experiment in a line: BLI.

On to “Soluble monomeric B7H6-His (from UniProt Q68D85 25-262) (domain or fragment)”, for which the Kd – broadly, the constant that tells how readily two partners part at equilibrium – with NKp30-Fc (human) was determined as 1300 nM.

B1: Soluble monomeric B7H6-His (domain or fragment)
chain: DLKVEMMAGGTQITPLNDNVTIFCNIFYSQPLNITSMGITWFWKSLTFDKEVKVFEFFGDHQEAFRPGAIVSPWRLKSGDASLRLPGIQLEEAGEYRCEVVVTPLKAQGTVQLEVVASPASRLLLDQVGMKENEDKYMCESSGFYPEAINITWEKQTQKFPHPIEISEDVITGPTIKNMDGTFNVTSCLKLNSSQEDPGTVYQCVVRHASLHTPLRSNFTLTAARHSLSETEKTDNFS
In the experiment with CC3-Fc (human), B1 displayed a Kd of 680 nM.
